Data published in patent US20200207854A1 (SYNTIMMUNE, published 2020).

B1: VH1_A8/Vκ1 IgG4 (antibody, V domains shown)
VH: QVQLVQSGAELKKPGASVKLSCKASGYTFTSYGISWVKQATGQGLEWIGEIYPRSGNTYYNEKFKGRATLTADKSTSTAYMELRSLKSEDSAVYFCARSTTVSPPAHWGTGTTVTVSS
VL: DIQMTQSPSYLSASVGDRVTITCKASDHINNWLAWYQQKPGQAPRLLISGATSLETGVPSRFSGSGTGKDYTLTISSLQTEDFATYYCQQYWSTPYTFGGGTKVEIK
notes: Human IgG4, kappa

Experiments:
[1] = biological target: monomeric His-tagged human FcRn (JTA), produced in-house (human) (UniProt P55899); assay: SPR, IgG amine-coupled, monomeric His-hFcRn injected, pH 6.0; first of two values in the cell
Chain of monomeric His-tagged human FcRn (JTA), produced in-house (human) (P55899 24-297 limits assumed, chain 1 of 2): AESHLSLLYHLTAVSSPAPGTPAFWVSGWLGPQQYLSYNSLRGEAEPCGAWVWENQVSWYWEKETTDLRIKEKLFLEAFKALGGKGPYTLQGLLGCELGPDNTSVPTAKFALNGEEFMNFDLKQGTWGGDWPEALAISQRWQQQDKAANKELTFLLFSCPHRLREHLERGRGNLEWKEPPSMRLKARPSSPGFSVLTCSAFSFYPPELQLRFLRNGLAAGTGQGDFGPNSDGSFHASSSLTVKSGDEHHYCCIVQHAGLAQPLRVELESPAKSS
Chain of monomeric His-tagged human FcRn (JTA), produced in-house (human) (P61769 21-119 limits assumed, chain 2 of 2, further chain): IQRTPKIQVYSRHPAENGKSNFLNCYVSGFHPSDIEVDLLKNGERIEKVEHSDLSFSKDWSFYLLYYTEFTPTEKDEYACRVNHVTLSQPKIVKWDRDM

[2] = biological target: monomeric His-tagged human FcRn (JTA), produced in-house (human) (UniProt P55899); assay: SPR, IgG amine-coupled, monomeric His-hFcRn injected, pH 6.0; second value (steady-state affinity model by the footnote)
[3] = biological target: monomeric His-tagged human FcRn (JTA), produced in-house (human) (UniProt P55899); assay: SPR, IgG amine-coupled, monomeric His-hFcRn injected, 1:1 Langmuir, pH 6.0
[4] = biological target: T1, recombinant human FcRn (Sino Biological Inc. Cat. No. CT009-H08H) (human, UniProt P55899 24-297; P61769 21-119); assay: competition ELISA vs biotinylated parent murine antibody, captured FcRn, pH 6.0
T1 construct: Bought protein; also called immobilized FcRn; hFcRn (SINO)
T1 sequence (P55899 24-297 limits assumed, chain 1 of 2): as the sequence (P55899 24-297 limits assumed, chain 1 of 2) above
T1 sequence (P61769 21-119 limits assumed, chain 2 of 2): as the sequence (P61769 21-119 limits assumed, chain 2 of 2, further chain) above
Description: (§1) The following day, 1 μg/ml recombinant human FcRn (Sino Biological Inc. cat. no. CT009-H08H) diluted in PBS pH 7.4 was added to the wells and incubated for 1 hour at 37° C. After washing the plates 3× with PBST pH 7.4, the plates were blocked with PBSM pH 7.4 for 1 hour at 37° C. From this point onwards, all wash and incubation steps were performed at the chosen assay pH (pH 6.0 or 7.4).
(§2) Additional combinations of humanized affinity matured heavy chains and humanized affinity matured light chains were tested in the competition ELISA. Combinations of humanized affinity matured heavy chains and humanized non-affinity matured light chains also were tested.

[5] = biological target: T1, recombinant human FcRn (Sino Biological …); assay: competition ELISA vs biotinylated parent murine antibody, captured FcRn, pH 7.4
Description: as §1, §2

[6] = biological target: T1, recombinant human FcRn (Sino Biological …); assay: competition ELISA vs biotinylated human serum IgG, captured FcRn, pH 6.0
Description: The following day, 0.5 μg/ml recombinant human FcRn (Sino Biological Inc. cat. no. CT009-H08H) diluted in PBS pH 7.4 was added to the wells and incubated for one hour at 37° C. After washing the plates 3× with PBST pH 7.4, the plates were blocked with PBSM pH 7.4 for one hour at 37° C. From this point onwards, all wash and incubation steps were performed at assay pH 6.0.

Molecule	Kd [1]	Kd [2]	koff [3]	kon [3]	average relative IC50 [4]	average relative IC50 [5]	average relative IC50 [6]
human IgG1 (antibody)	763 nM	1250 nM	0.0824 s⁻¹	108000 M⁻¹ s⁻¹	–	–	–
human IgG4 (antibody)	1010 nM	970 nM	–	–	–	–	–
B1	–	–	–	–	0.87 relative to chimeric parent murine antibody	0.89 relative to chimeric parent murine antibody	0.53 relative to parent murine antibody
